Measured values published in the supplement of paper PMC11316812.
± gives the standard deviation of the averaged measurements.

Experiments:
[1] = tested on: MCF7; test: percentage of EdU-negative (G0-arrested) nuclei per well, 72 h; higher = more G0 arrest; settings: reference: sequence is the full UniProt precursor, the tested protein was the secreted form or ectodomain
[2] = tested on: hTERT-HMEC; test: as above; settings: reference: sequence is the full UniProt precursor, the tested protein was the secreted form or ectodomain
[3] = protein concentration 0.0257143 µM
[4] = protein concentration 0.257143 µM
[5] = protein concentration 0.01275 µM
[6] = protein concentration 0.1275 µM
[7] = protein concentration 0.00857143 µM
[8] = protein concentration 0.0857143 µM
[9] = protein concentration 0.0111425 µM
[10] = protein concentration 0.111425 µM
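Also: secreted proteins added to cultured cells, EdU pulse at the end, nuclei found by Hoechst imaging, EdU status from nuclear versus surrounding ring intensity ratio, PBS as neutral control.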

**Q.** “MAAERGARRLLSTPSFWLYCLLLLGRRAPGAAAARSGSAPQSPGASIRTFTPFYFLVEPVDTLSVRGSSVILNCSAYSEPSPKIEWKKDGTFLNLVSDDRRQLLPDGSLFISNVVHSKHNKPDEGYYQCVATVESLGTIISRTAKLIVAGLPRFTSQPEPSSVYAGNNAILNCEVNADLVPFVRWEQNRQPLLLDDRVIKLPSGMLVISNATEGDGGLYRCVVESGGPPKYSDEVELKVLPDPEVISDLVFLKQPSPLVRVIGQDVVLPCVASGLPTPTIKWMKNEEALDTESSERLVLLAGGSLEISDVTEDDAGTYFCIADNGNETIEAQAELTVQAQPEFLKQPTNIYAHESMDIVFECEVTGKPTPTVKWVKNGDMVIPSDYFKIVKEHNLQVLGLVKSDEGFYQCIAENDVGNAQAGAQLIILEHAPATTGPLPSAPRDVVASLVSTRFIKLTWRTPASDPHGDNLTYSVFYTKEGIARERVENTSHPGEMQVTIQNLMPATVYIFRVMAQNKHGSGESSAPLRVETQPEVQLPGPAPNLRAYAASPTSITVTWETPVSGNGEIQNYKLYYMEKGTDKEQDVDVSSHSYTINGLKKYTEYSFRVVAYNKHGPGVSTPDVAVRTLSDVPSAAPQNLSLEVRNSKSIMIHWQPPAPATQNGQITGYKIRYRKASRKSDVTETLVSGTQLSQLIEGLDRGTEYNFRVAALTINGTGPATDWLSAETFESDLDETRVPEVPSSLHVRPLVTSIVVSWTPPENQNIVVRGYAIGYGIGSPHAQTIKVDYKQRYYTIENLDPSSHYVITLKAFNNVGEGIPLYESAVTRPHTDTSEVDLFVINAPYTPVPDPTPMMPPVGVQASILSHDTIRITWADNSLPKHQKITDSRYYTVRWKTNIPANTKYKNANATTLSYLVTGLKPNTLYEFSVMVTKGRRSSTWSMTAHGTTFELVPTSPPKDVTVVSKEGKPKTIIVNWQPPSEANGKITGYIIYYSTDVNAEIHDWVIEPVVGNRLTHQIQELTLDTPYYFKIQARNSKGMGPMSEAVQFRTPKADSSDKMPNDQASGSGGKGSRLPDLGSDYKPPMSGSNSPHGSPTSPLDSNMLLVIIVSVGVITIVVVVIIAVFCTRRTTSHQKKKRAACKSVNGSHKYKGNSKDVKPPDLWIHHERLELKPIDKSPDPNPIMTDTPIPRNSQDITPVDNSMDSNIHQRRNSYRGHESEDSMSTLAGRRGMRPKMMMPFDSQPPQPVISAHPIHSLDNPHHHFHSSSLASPARSHLYHPGSPWPIGTSMSLSDRANSTESVRNTPSTDTMPASSSQTCCTDHQDPEGATSSSYLASSQEEDSGQSLPTAHVRPSHPLKSFAVPAIPPPGPPTYDPALPSTPLLSQQALNHHIHSVKTASIGTLGRSRPPMPVVVPSAPEVQETTRMLEDSESSYEPDELTKEMAHLEGLMKDLNAITTA” was tested. Which “percentage of EdU-negative” value [1, 3] did it give?
**A.** 24 ± 1.2%

**Q.** What about the “percentage of EdU-negative” value [1, 4] of the same sequence?
**A.** 26.44 ± 0.25%

**Q.** What about the “percentage of EdU-negative” value [2, 3] of the same sequence?
**A.** 6.13 ± 1.3%

**Q.** What about the “percentage of EdU-negative” value [2, 4] of the same sequence?
**A.** 12.3 ± 1.7%

**Q.** How did the “percentage of EdU-negative” value [1, 5] turn out when “MAATSLMSALAARLLQPAHSCSLRLRPFHLAAVRNEAVVISGRKLAQQIKQEVRQEVEEWVASGNKRPHLSVILVGENPASHSYVLNKTRAAAVVGINSETIMKPASISEEELLNLINKLNNDDNVDGLLVQLPLPEHIDERRICNAVSPDKDVDGFHVINVGRMCLDQYSMLPATPWGVWEIIKRTGIPTLGKNVVVAGRSKNVGMPIAMLLHTDGAHERPGGDATVTISHRYTPKEQLKKHTILADIVISAAGIPNLITADMIKEGAAVIDVGINRVHDPVTAKPKLVGDVDFEGVRQKAGYITPVPGGVGPMTVAMLMKNTIIAAKKVLRLEEREVLKSKELGVATN” was run?
**A.** 24 ± 0.89%

**Q.** And the “percentage of EdU-negative” value [1, 6]?
**A.** 29 ± 2%

**Q.** What about the “percentage of EdU-negative” value [2, 5] of the same sequence?
**A.** 4.46 ± 0.17%

**Q.** And the “percentage of EdU-negative” value [2, 6]?
**A.** 5.45 ± 0.4%

**Q.** With “MSVPLLKIGVVLSTMAMITNWMSQTLPSLVGLNTTKLSAAGGGTLDRSTGVLPTNPEESWQVYSSAQDSEGRCICTVVAPQQTMCSRDARTKQLRQLLEKVQNMSQSIEVLDRRTQRDLQYVEKMENQMKGLESKFKQVEESHKQHLARQFKAIKAKMDELRPLIPVLEEYKADAKLVLQFKEEVQNLTSVLNELQEEIGAYDYDELQSRVSNLEERLRACMQKLACGKLTGISDPVTVKTSGSRFGSWMTDPLAPEGDNRVWYMDGYHNNRFVREYKSMVDFMNTDNFTSHRLPHPWSGTGQVVYNGSIYFNKFQSHIIIRFDLKTETILKTRSLDYAGYNNMYHYAWGGHSDIDLMVDESGLWAVYATNQNAGNIVVSRLDPVSLQTLQTWNTSYPKRSAGEAFIICGTLYVTNGYSGGTKVHYAYQTNASTYEYIDIPFQNKYSHISMLDYNPKDRALYAWNNGHQILYNVTLFHVIRSDEL” as the sequence, how does the “percentage of EdU-negative” value [1, 7] read?
**A.** 25.5 ± 3.5%

**Q.** And the “percentage of EdU-negative” value [1, 8]?
**A.** 29.3 ± 2.1%

**Q.** What about the “percentage of EdU-negative” value [2, 7] of the same sequence?
**A.** 4.93 ± 0.14%

**Q.** What about the “percentage of EdU-negative” value [2, 8] of the same sequence?
**A.** 9.49 ± 1.4%

**Q.** With “MVLLWEPAGAWLALGLALALGPSVAAAAPRQDCTGVECPPLENCIEEALEPGACCATCVQQGCACEGYQYYDCLQGGFVRGRVPAGQSYFVDFGSTECSCPPGGGKISCQFMLCPELPPNCIEAVVVADSCPQCGQVGCVHAGHKYAAGHTVHLPPCRACHCPDAGGELICYQLPGCHGNFSDAEEGDPERHYEDPYSYDQEVAEVEAATALGGEVQAGAVQAGAGGPPAALGGGSQPLSTIQAPPWPAVLPRPTAAAALGPPAPVQAKARRVTEDSEEEEEEEEEREEMAVTEQLAAGGHRGLDGLPTTAPAGPSLPIQEERAEAGARAEAGARPEENLILDAQATSRSTGPEGVTHAPSLGKAALVPTQAVPGSPRDPVKPSPHNILSTSLPDAAWIPPTREVPRKPQVLPHSHVEEDTDPNSVHSIPRSSPEGSTKDLIETCCAAGQQWAIDNDECLEIPESGTEDNVCRTAQRHCCVSYLQEKSCMAGVLGAKEGETCGAEDNDSCGISLYKQCCDCCGLGLRVRAEGQSCESNPNLGYPCNHVMLSCCEGEEPLIVPEVRRPPEPAAAPRRVSEAEMAGREALSLGTEAELPNSLPGDDQDECLLLPGELCQHLCINTVGSYHCACFPGFSLQDDGRTCRPEGHPPQPEAPQEPALKSEFSQVASNTIPLPLPQPNTCKDNGPCKQVCSTVGGSAICSCFPGYAIMADGVSCEDINECVTDLHTCSRGEHCVNTLGSFHCYKALTCEPGYALKDGECEDVDECAMGTHTCQPGFLCQNTKGSFYCQARQRCMDGFLQDPEGNCVDINECTSLSEPCRPGFSCINTVGSYTCQRNPLICARGYHASDDGTKCVDVNECETGVHRCGEGQVCHNLPGSYRCDCKAGFQRDAFGRGCIDVNECWASPGRLCQHTCENTLGSYRCSCASGFLLAADGKRCEDVNECEAQRCSQECANIYGSYQCYCRQGYQLAEDGHTCTDIDECAQGAGILCTFRCLNVPGSYQCACPEQGYTMTANGRSCKDVDECALGTHNCSEAETCHNIQGSFRCLRFECPPNYVQVSKTKCERTTCHDFLECQNSPARITHYQLNFQTGLLVPAHIFRIGPAPAFTGDTIALNIIKGNEEGYFGTRRLNAYTGVVYLQRAVLEPRDFALDVEMKLWRQGSVTTFLAKMHIFFTTFAL” as the sequence, how does the “percentage of EdU-negative” value [1, 9] read?
**A.** 23.7 ± 1.3%

**Q.** What about the “percentage of EdU-negative” value [1, 10] of the same sequence?
**A.** 25.1 ± 2.6%

**Q.** And the “percentage of EdU-negative” value [2, 9]?
**A.** 5.72 ± 0.17%

**Q.** And the “percentage of EdU-negative” value [2, 10]?
**A.** 6.99 ± 0.78%

**Q.** How did the “percentage of EdU-negative” value [1, 3] turn out when “MKVLLCDLLLLSLFSSVFSSCQRDCLTCQEKLHPALDSFDLEVCILECEEKVFPSPLWTPCTKVMARSSWQLSPAAPEHVAAALYQPRASEMQHLRRMPRVRSLFQEQEEPEPGMEEAGEMEQKQLQKRFGGFTGARKSARKLANQKRFSEFMRQYLVLSMQSSQRRRTLHQNGNV” was run?
**A.** 24.9 ± 0.7%

**Q.** What about the “percentage of EdU-negative” value [1, 4] of the same sequence?
**A.** 27.5 ± 0.28%

**Q.** And the “percentage of EdU-negative” value [2, 3]?
**A.** 4.77 ± 0.15%

**Q.** What about the “percentage of EdU-negative” value [2, 4] of the same sequence?
**A.** 5.6 ± 0.068%
